How the values were obtained:
[1] = biological target: T1, phosphoribosylpyrophosphate synthetase (MsPrsA) (Mycolicibacterium smegmatis, UniProt A0R3C8); assay: OPRT-coupled spectrophotometric assay, dose response on purified enzyme; type: biochemical
T1 construct: gene prs; recombinant MsPrsA, hexamer
T1 sequence (A0R3C8 1-326): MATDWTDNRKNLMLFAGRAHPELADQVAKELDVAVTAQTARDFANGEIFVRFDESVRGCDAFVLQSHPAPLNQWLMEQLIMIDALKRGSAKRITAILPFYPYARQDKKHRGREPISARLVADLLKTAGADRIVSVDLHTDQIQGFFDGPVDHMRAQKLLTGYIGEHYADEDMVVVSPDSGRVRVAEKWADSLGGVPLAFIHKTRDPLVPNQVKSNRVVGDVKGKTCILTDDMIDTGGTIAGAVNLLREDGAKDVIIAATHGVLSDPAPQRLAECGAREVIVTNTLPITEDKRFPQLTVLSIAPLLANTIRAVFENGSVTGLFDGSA

[2] = biological target: the molecule itself; assay: SEC; analytical gel filtration on Sephacryl S200HR 16/60, MsPrsA 1 mg/ml in Tris-HCl 20mM pH 8.0, NaCl 50mM; column calibrated with Blue Dextrane, catalase, aldolase, albumin, ovoalbumin; elution volume consistent with about 221 KDa
purified protein = substrate: Nc1ncnc2c1ncn2[C@@H]1O[C@H](COP(=O)(O)OP(=O)(O)OP(=O)(O)O)[C@@H](O)[C@H]1O; assay: purified protein; type: biochemical, Mycolicibacterium smegmatis; details: Mg2+, inorganic phosphate

Nc1ncnc2c1ncn2[C@@H]1O[C@H](COP(=O)(O)OP(=O)(O)O)[C@@H](O)[C@H]1O [ADP] gave an IC50 [1] of 174 ± 46 µM.

B1: Mycobacterium smegmatis phosphoribosylpyrophosphate synthetase (PrsA) (enzyme, M. smegmatis mc2155, UniProt A0R3C8 1-326, looked up)
chain: MATDWTDNRKNLMLFAGRAHPELADQVAKELDVAVTAQTARDFANGEIFVRFDESVRGCDAFVLQSHPAPLNQWLMEQLIMIDALKRGSAKRITAILPFYPYARQDKKHRGREPISARLVADLLKTAGADRIVSVDLHTDQIQGFFDGPVDHMRAQKLLTGYIGEHYADEDMVVVSPDSGRVRVAEKWADSLGGVPLAFIHKTRDPLVPNQVKSNRVVGDVKGKTCILTDDMIDTGGTIAGAVNLLREDGAKDVIIAATHGVLSDPAPQRLAECGAREVIVTNTLPITEDKRFPQLTVLSIAPLLANTIRAVFENGSVTGLFDGSA
notes: Phosphoribosylpyrophosphate synthetase (PrsA) of M. smegmatis mc2155; the crystal model holds Arg9-Gly316 without Arg204-Lys213; pCold I is recalled to add an N-terminal translation enhancing element, His6 and a Factor Xa site; also called MsPrsA; M. smegmatis PrsA
In the case of B1, the “stoichiometry N” value [2] is reported as 6, the K0.5 (purified protein) is reported as 0.058 ± 0.005 mM and the Vmax (purified protein) is reported as 0.006 µmol/min. For the same molecule, the kcat (purified protein) was 83.5 ± 4.1 s⁻¹ and the kcat/Km (purified protein) was 1.44e+06 ± 53800 M⁻¹ s⁻¹.

From publication PMC5395218, “Biochemical and structural investigations on phosphoribosylpyrophosphate synthetase from Mycobacterium smegmatis” (PLoS ONE, 2017)
